Experimental data published in article PMC3985747 (Biochemistry, 2014).

How the values were obtained:
SEC = target: the molecule itself; experiment: SEC
crystal structure = target: the molecule itself; experiment: crystal structure

Row | Protein | stoichiometry N (SEC) | binding result (crystal structure)
1 | ArnB (wild type) of Salmonella typhimurium (enzyme, S. typhimurium, UniProt Q8ZNF3 1-385, looked up) MAEGKMMSDFLPFSRPAMGAEELAAVKTVLDSGWITTGPKNQELEAAFCRLTGNQYAVAVSSATAGMHIALMALGIGEGDEVITPSMTWVSTLNMIVLLGANPVMVDVDRDTLMVTPEHIEAAITPQTKAIIPVHYAGAPADLDAIYALGERYGIPVIEDAAHATGTSYKGRHIGARGTAIFSFHAIKNITCAEGGIVVTDNPQFADKLRSLKFHGLGVDAWDRQSGGRAPQAEVLAPGYKYNLPDLNAAIALAQLQKLDALNARRAAIAAQYHQAMADLPFQPLSLPSWEHIHAWHLFIIRVDEARCGITRDALMASLKTKGIGTGLHFRAAHTQKYYRERFPTLTLPDTEWNSERICSLPLFPDMTESDFDRVITALHQIAGQ | 2 | 
2 | ArnB K188A mutant of Salmonella typhimurium (enzyme, S. typhimurium, UniProt Q8ZNF3 1-385, looked up) MAEGKMMSDFLPFSRPAMGAEELAAVKTVLDSGWITTGPKNQELEAAFCRLTGNQYAVAVSSATAGMHIALMALGIGEGDEVITPSMTWVSTLNMIVLLGANPVMVDVDRDTLMVTPEHIEAAITPQTKAIIPVHYAGAPADLDAIYALGERYGIPVIEDAAHATGTSYKGRHIGARGTAIFSFHAIANITCAEGGIVVTDNPQFADKLRSLKFHGLGVDAWDRQSGGRAPQAEVLAPGYKYNLPDLNAAIALAQLQKLDALNARRAAIAAQYHQAMADLPFQPLSLPSWEHIHAWHLFIIRVDEARCGITRDALMASLKTKGIGTGLHFRAAHTQKYYRERFPTLTLPDTEWNSERICSLPLFPDMTESDFDRVITALHQIAGQ |  | binds
